Laboratory results reported in patent US20240116985A1, “STAPLED PEPTIDES AND METHODS THEREOF” (priority 2020, published 2024).
Starred links: 1 amine or outer side, 2 acyl side, 3 side chain; linkers in the order of their positions; H or OH if unused. Positions of bridges follow the written chain, without caps; N, C: chain ends. Non-standard residues stand in square brackets, D forms with d. Primed or numbered codes have the meaning given here. PyrS2″ = (S)-3-amino-1-((pent-4-en-1-yloxy)carbonyl)pyrrolidine-3-carboxylic acid (stapling residue), C=CCCCOC(=O)N1CC[C@@](N[*:1])(C(=O)[*:2])C1; B5(32) = 2-amino-2-(pent-4-en-1-yl)hept-6-enoic acid (bis-4-pentenylglycine, two alkene side chains), C=CCCCC(CCCC=C)(N[*:1])C(=O)[*:2]; B5(4) = 2,2-bis(4-pentenyl)glycine = 2-amino-2-(pent-4-en-1-yl)hept-6-enoic acid (stitching residue), C=CCCCC(CCCC=C)(N[*:1])C(=O)[*:2]; PyrS2 = (S)-3-amino-1-((pent-4-en-1-yloxy)carbonyl)pyrrolidine-3-carboxylic acid, C=CCCCOC(=O)N1CC[C@@](N[*:1])(C(=O)[*:2])C1; B5(3) = 2,2-bis(4-pentenyl)glycine (stitching residue), C=CCCCC(CCCC=C)(N[*:1])C(=O)[*:2]; Phe(3-COOH) = N[C@@H](Cc1cccc(C(=O)O)c1)C(=O)O; Phe(4-Me) = Cc1ccc(C[C@H](N)C(=O)O)cc1; 2Nal = N[C@@H](Cc1ccc2ccccc2c1)C(=O)O; Phe(2-Me) = Cc1ccccc1C[C@H](N)C(=O)O; Bta = N[C@@H](Cc1csc2ccccc12)C(=O)O; αAllylPro = C=CC[C@@]1(C(=O)O)CCCN1; tBuAla = CC(C)(C)C[C@H](N)C(=O)O; 3Thi = N[C@@H](Cc1ccsc1)C(=O)O; S8 = C=CCCCCCC[C@](C)(N)C(=O)O; Aib = CC(C)(N)C(=O)O

Biological target: full-length beta-Catenin (Uniprot ID P35222) (Homo sapiens (Human)) (UniProt P35222)
Test: fluorescence polarization competition; full-length beta-catenin, competitor probe 5FAM-TCF4(10-53)

Chain of full-length beta-Catenin (Uniprot ID P35222) (Homo sapiens (Human)) (P35222 whole entry): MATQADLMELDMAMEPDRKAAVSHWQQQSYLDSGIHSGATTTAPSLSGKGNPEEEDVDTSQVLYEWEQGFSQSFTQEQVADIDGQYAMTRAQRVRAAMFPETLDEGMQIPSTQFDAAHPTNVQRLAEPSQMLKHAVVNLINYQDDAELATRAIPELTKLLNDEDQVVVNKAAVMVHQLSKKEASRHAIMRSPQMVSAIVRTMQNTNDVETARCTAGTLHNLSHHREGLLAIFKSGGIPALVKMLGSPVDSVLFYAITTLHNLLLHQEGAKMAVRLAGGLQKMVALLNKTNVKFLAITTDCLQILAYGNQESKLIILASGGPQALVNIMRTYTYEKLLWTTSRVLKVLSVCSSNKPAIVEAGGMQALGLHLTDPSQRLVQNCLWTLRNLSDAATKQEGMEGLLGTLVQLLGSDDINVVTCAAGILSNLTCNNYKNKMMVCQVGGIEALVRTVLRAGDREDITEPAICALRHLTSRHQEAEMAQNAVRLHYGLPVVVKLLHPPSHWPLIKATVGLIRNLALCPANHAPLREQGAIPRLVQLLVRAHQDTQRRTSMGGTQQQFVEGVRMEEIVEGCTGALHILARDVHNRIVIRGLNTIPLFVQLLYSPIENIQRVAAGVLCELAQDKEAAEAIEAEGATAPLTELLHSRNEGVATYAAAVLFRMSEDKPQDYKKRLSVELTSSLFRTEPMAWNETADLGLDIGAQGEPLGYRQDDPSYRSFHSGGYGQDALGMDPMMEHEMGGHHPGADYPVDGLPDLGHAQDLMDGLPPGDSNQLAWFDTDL

| Binder | IC50 |
| --- | --- |
| Ac-[αAllylPro]D[tBuAla][B5(3)]D[Phe(3-COOH)]AAFL[PyrS2″][3Thi][Bta]NAAAAAAA-NH2 (staple 1-4, 4-11) [I-2269] | 20 nM |
| Ac-[αAllylPro]D[tBuAla][B5(3)]D[Phe(3-COOH)]AAFL[PyrS2″][3Thi][Bta]NAAAAAAAAA-NH2 (staple 1-4, 4-11) [I-2270] | 40 nM |
| Ac-[αAllylPro]D[tBuAla][B5(3)]D[Phe(3-COOH)]AAFL[PyrS2″][3Thi][Bta]NA[Aib]A[Aib]A-NH2 (staple 1-4, 4-11) [I-2272] | 43 nM |

Results, then the binder that gave them:

| IC50 | Binder |
| --- | --- |
| 107 nM | Ac-[αAllylPro]D[tBuAla][B5(3)]D[Phe(3-COOH)]AAFL[PyrS2″][3Thi][Bta]NA[Aib]A[Aib]A[Aib]A-NH2 (staple 1-4, 4-11) [I-2273] |
| 10 nM | Ac-[αAllylPro]D[tBuAla][B5(3)]D[Phe(3-COOH)]AAFL[PyrS2″][3Thi][Bta]NL-NH2 (staple 1-4, 4-11) [I-2274] |
| 117 nM | Ac-[αAllylPro]D[tBuAla][B5(32)]D[Phe(3-COOH)]AAFL[PyrS2][3Thi][Bta]NLLL-NH2 (staple 1-4, 4-11; also: earlier eluting staple isomer (HPLC peak)) [I-2275] |
| 158 nM | Ac-[αAllylPro]D[tBuAla][B5(32)]D[Phe(3-COOH)]AAFL[PyrS2][3Thi][Bta]NLLL-NH2 (staple 1-4, 4-11; also: later eluting staple isomer (HPLC peak)) [I-2276] |
| 114 nM | Ac-[αAllylPro]D[tBuAla][B5(32)]D[Phe(3-COOH)]AAFL[PyrS2][3Thi][Bta]NALL-NH2 (staple 1-4, 4-11; also: earlier eluting staple isomer) [I-2277] |
| 120 nM | Ac-[αAllylPro]D[tBuAla][B5(32)]D[Phe(3-COOH)]AAFL[PyrS2][3Thi][Bta]NALL-NH2 (staple 1-4, 4-11; also: later eluting staple isomer) [I-2278] |
| 138 nM | Ac-[αAllylPro]D[tBuAla][B5(4)]D[Phe(3-COOH)]AAFL[PyrS2][3Thi][Bta]NALALA-NH2 (staple 1-4, 4-11; also: earlier eluting staple isomer) [I-2281] |

Biological target: full-length beta-Catenin (Uniprot ID P35222) (Homo sapiens (Human)) (UniProt P35222)
Test: fluorescence polarization competition; peptide titrated against 10 nM full-length beta-catenin + 10 nM 5FAM-TCF4(10-53)

| Binder | IC50 |
| --- | --- |
| Ac-[αAllylPro]DA[B5(4)]DDAA[Phe(2-Me)]A[S8]F[Bta]Q-NH2 (staple 1-4, 4-11; also: later-eluting staple isomer) [I-366] | 1440 nM |
| Ac-[αAllylPro]DA[B5(4)]DDAAFA[S8][Phe(2-Me)][Bta]Q-NH2 (staple 1-4, 4-11) [I-367] | 177 nM |
| Ac-[αAllylPro]DA[B5(4)]DDAAFA[S8][Phe(4-Me)][Bta]Q-NH2 (staple 1-4, 4-11) [I-369] | 2310 nM |
| Ac-[αAllylPro]DA[B5(4)]DDAA[2Nal]A[S8]F[Bta]Q-NH2 (staple 1-4, 4-11) [I-370] | 1560 nM |

Biological target: full-length beta-Catenin (Uniprot ID P35222) (Homo sapiens (Human)) (UniProt P35222)
Test: fluorescence polarization competition; 10 nM full-length beta-catenin, competitor 10 nM 5FAM-TCF4(10-53)

| Binder | EC50 |
| --- | --- |
| Ac-[αAllylPro]DA[B5(4)]DDAA[Phe(2-Me)]A[S8]F[Bta]Q-NH2 (staple 1-4, 4-11; also: later-eluting staple isomer) [I-366] | 1440 nM |
| Ac-[αAllylPro]DA[B5(4)]DDAAFA[S8][Phe(2-Me)][Bta]Q-NH2 (staple 1-4, 4-11) [I-367] | 177 nM |
| Ac-[αAllylPro]DA[B5(4)]DDAAFA[S8][Phe(4-Me)][Bta]Q-NH2 (staple 1-4, 4-11) [I-369] | 2310 nM |
| Ac-[αAllylPro]DA[B5(4)]DDAA[2Nal]A[S8]F[Bta]Q-NH2 (staple 1-4, 4-11) [I-370] | 1560 nM |
